{"source": "patent US20150196651A1", "about": "(published 2015)", "key": {"[1]": {"molecular_target": "T1, rat PrRP receptor in RC-4B/C cells (rat, UniProt Q64121 1-370)", "T1 construct": "whole, on cells; endogenous receptor of RC-4B/C cells (ATCC); also called rat receptor; GPR10 receptor expressed in rat hypophyseal cells", "T1 sequence (looked up)": "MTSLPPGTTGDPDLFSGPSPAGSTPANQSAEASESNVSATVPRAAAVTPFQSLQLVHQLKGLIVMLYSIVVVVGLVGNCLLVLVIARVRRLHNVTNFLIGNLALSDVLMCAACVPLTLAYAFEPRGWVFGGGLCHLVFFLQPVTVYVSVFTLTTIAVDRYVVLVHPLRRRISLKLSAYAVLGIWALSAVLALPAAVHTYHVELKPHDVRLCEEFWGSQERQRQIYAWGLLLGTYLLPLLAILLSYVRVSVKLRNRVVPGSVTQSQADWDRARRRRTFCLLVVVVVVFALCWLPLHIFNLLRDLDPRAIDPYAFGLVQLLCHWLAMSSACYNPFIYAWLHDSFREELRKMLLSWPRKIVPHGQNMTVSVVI", "assay": "competition with 125I-rat PrRP31, RC-4B/C cells", "protocol": "The rat pituitary cell line RC-4B/C (ATCC, Manassas, USA) was grown on 24-well plates which had their bottom coated with polyethyleneimine. The cells were grown to the optimal density of 300-450 thousand cells per well.\n(§1) Plates were incubated for 60 minutes at room temperature. After incubation, the cells were solubilized in 0.1 mol/l solution of NaOH, and the radioactivity bound to the cells was counted using a γ-counter. The experiments were performed in duplicate, and repeated at least three times."}, "[2]": {"molecular_target": "T2, human PrRP receptor GPR10 (human, UniProt P49683 1-370)", "T2 construct": "whole, on cells; also called GPR10 human receptor transfected in CHO cells; human GPR10 receptor", "T2 sequence (looked up)": "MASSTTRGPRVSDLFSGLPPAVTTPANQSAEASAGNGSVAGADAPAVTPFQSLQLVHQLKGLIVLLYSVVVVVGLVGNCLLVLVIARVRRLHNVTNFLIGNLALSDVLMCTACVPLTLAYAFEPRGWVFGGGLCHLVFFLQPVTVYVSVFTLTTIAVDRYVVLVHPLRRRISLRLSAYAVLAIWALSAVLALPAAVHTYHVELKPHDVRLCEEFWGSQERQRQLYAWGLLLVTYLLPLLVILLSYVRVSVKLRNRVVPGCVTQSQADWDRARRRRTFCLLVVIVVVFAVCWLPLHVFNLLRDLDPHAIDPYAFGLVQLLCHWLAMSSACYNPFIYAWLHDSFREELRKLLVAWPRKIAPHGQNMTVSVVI", "assay": "competition with 125I-human PrRP31, CHO cells with human GPR10", "protocol": "CHO cells transfected with human PrRP receptor GPR10 (Perkin Elmer, USA) were grown on 24-well plates coated with polyethyleneimine. […] The following agents were used for the experiment: binding buffer (25 mmol.1⁻¹ Tris, pH 7.4; 118 mmol.1⁻¹ NaCl, 10 mmol.1⁻¹ MgCl₂, 1 mmol.1⁻¹ CaCl₂, 5.5 mmol.1⁻¹ glucose, 0.5 mg/ml BSA), unlabeled analogs of PrRP (i.e. the analog being tested) at a final concentration between 10⁻¹¹ to 10⁻⁴ mol.1⁻¹, and radiolabeled human ¹²⁵1-PrRP31 at a final concentration of 5×10⁻¹¹ mol.1⁻¹.\nas §1"}}, "note": "Square brackets hold non-standard residues; d marks the D form. Ends that are not written are not given here. * marks the point of attachment. Palmitoyl = CCCCCCCCCCCCCCCC(=O)*; Myristoyl = CCCCCCCCCCCCCC(=O)*; Nle = CCCC[C@H](N)C(=O)O; NOMe = CON*"}
{"binder": "Myristoyl-[dF][dR]GVPRIGRGTYWAPNIDPT-NH2 (SMILES CCCCCCCCCCCCCC(=O)N[C@H](Cc1ccccc1)C(=O)N[C@H](CCCNC(=N)N)C(=O)NCC(=O)N[C@H](C(=O)N1CCC[C@H]1C(=O)N[C@@H](CCCNC(=N)N)C(=O)N[C@H](C(=O)NCC(=O)N[C@@H](CCCNC(=N)N)C(=O)NCC(=O)N[C@H](C(=O)N[C@@H](Cc1ccc(O)cc1)C(=O)N[C@@H](Cc1c[nH]c2ccccc12)C(=O)N[C@@H](C)C(=O)N1CCC[C@H]1C(=O)N[C@@H](CC(N)=O)C(=O)N[C@H](C(=O)N[C@@H](CC(=O)O)C(=O)N1CCC[C@H]1C(=O)N[C@H](C(N)=O)[C@@H](C)O)[C@@H](C)CC)[C@@H](C)O)[C@@H](C)CC)C(C)C, scrambled peptide; also called 26 scram)", "note": "[analog no. 26]", "values": [{"measurement": "% of PrRP31", "setting": "[1]", "result": 1.4, "unit": "%"}, {"measurement": "Ki", "setting": "[1]", "result": 0.364, "unit": "µM"}]}
{"binder": "TPDINPAWYASRGIRPVGRF-NH2 (synthetic peptide)", "note": "[Human PrRP20]", "values": [{"measurement": "% of PrRP31", "setting": "[1]", "result": 277, "unit": "%"}, {"measurement": "Ki", "setting": "[1]", "result": 0.00178, "unit": "µM"}]}
{"binder": "TPDIK(Palmitoyl)PAWYASRGIRPVGRF-NH2 (N-terminus assumed; SMILES CCCCCCCCCCCCCCCC(=O)NCCCC[C@H](NC(=O)[C@@H](NC(=O)[C@H](CC(=O)O)NC(=O)[C@@H]1CCCN1C(=O)[C@@H](N)[C@@H](C)O)[C@@H](C)CC)C(=O)N1CCC[C@H]1C(=O)N[C@@H](C)C(=O)N[C@@H](Cc1c[nH]c2ccccc12)C(=O)N[C@@H](Cc1ccc(O)cc1)C(=O)N[C@@H](C)C(=O)N[C@@H](CO)C(=O)N[C@@H](CCCNC(=N)N)C(=O)NCC(=O)N[C@H](C(=O)N[C@@H](CCCNC(=N)N)C(=O)N1CCC[C@H]1C(=O)N[C@H](C(=O)NCC(=O)N[C@@H](CCCNC(=N)N)C(=O)N[C@@H](Cc1ccccc1)C(N)=O)C(C)C)[C@@H](C)CC)", "note": "[analog no. 49]", "values": [{"measurement": "% of PrRP31", "setting": "[2]", "result": 90, "unit": "%"}, {"measurement": "Ki", "setting": "[2]", "result": 0.00434, "unit": "µM"}]}
{"binder": "TPDINPK(Palmitoyl)WYASRGIRPVGRF-NH2 (N-terminus assumed; SMILES CCCCCCCCCCCCCCCC(=O)NCCCC[C@H](NC(=O)[C@@H]1CCCN1C(=O)[C@H](CC(N)=O)NC(=O)[C@@H](NC(=O)[C@H](CC(=O)O)NC(=O)[C@@H]1CCCN1C(=O)[C@@H](N)[C@@H](C)O)[C@@H](C)CC)C(=O)N[C@@H](Cc1c[nH]c2ccccc12)C(=O)N[C@@H](Cc1ccc(O)cc1)C(=O)N[C@@H](C)C(=O)N[C@@H](CO)C(=O)N[C@@H](CCCNC(=N)N)C(=O)NCC(=O)N[C@H](C(=O)N[C@@H](CCCNC(=N)N)C(=O)N1CCC[C@H]1C(=O)N[C@H](C(=O)NCC(=O)N[C@@H](CCCNC(=N)N)C(=O)N[C@@H](Cc1ccccc1)C(N)=O)C(C)C)[C@@H](C)CC)", "note": "[analog no. 50]", "values": [{"measurement": "% of PrRP31", "setting": "[2]", "result": 69, "unit": "%"}, {"measurement": "Ki", "setting": "[2]", "result": 0.00564, "unit": "µM"}]}
{"binder": "Palmitoyl-SRTHRHSMEIRTPDINPAWYASRGIRPVGRF-NHMe (SMILES CCCCCCCCCCCCCCCC(=O)N[C@@H](CO)C(=O)N[C@@H](CCCNC(=N)N)C(=O)N[C@H](C(=O)N[C@@H](Cc1c[nH]cn1)C(=O)N[C@@H](CCCNC(=N)N)C(=O)N[C@@H](Cc1c[nH]cn1)C(=O)N[C@@H](CO)C(=O)N[C@@H](CCSC)C(=O)N[C@@H](CCC(=O)O)C(=O)N[C@H](C(=O)N[C@@H](CCCNC(=N)N)C(=O)N[C@H](C(=O)N1CCC[C@H]1C(=O)N[C@@H](CC(=O)O)C(=O)N[C@H](C(=O)N[C@@H](CC(N)=O)C(=O)N1CCC[C@H]1C(=O)N[C@@H](C)C(=O)N[C@@H](Cc1c[nH]c2ccccc12)C(=O)N[C@@H](Cc1ccc(O)cc1)C(=O)N[C@@H](C)C(=O)N[C@@H](CO)C(=O)N[C@@H](CCCNC(=N)N)C(=O)NCC(=O)N[C@H](C(=O)N[C@@H](CCCNC(=N)N)C(=O)N1CCC[C@H]1C(=O)N[C@H](C(=O)NCC(=O)N[C@@H](CCCNC(=N)N)C(=O)N[C@@H](Cc1ccccc1)C(=O)NC)C(C)C)[C@@H](C)CC)[C@@H](C)CC)[C@@H](C)O)[C@@H](C)CC)[C@@H](C)O)", "note": "[analog no. 44]", "values": [{"measurement": "% of PrRP31", "setting": "[2]", "result": 123, "unit": "%"}]}
{"binder": "Palmitoyl-SRTHRHSMEIRTPDINPAWYASRGIRPVGRF-NOMe (SMILES CCCCCCCCCCCCCCCC(=O)N[C@@H](CO)C(=O)N[C@@H](CCCNC(=N)N)C(=O)N[C@H](C(=O)N[C@@H](Cc1c[nH]cn1)C(=O)N[C@@H](CCCNC(=N)N)C(=O)N[C@@H](Cc1c[nH]cn1)C(=O)N[C@@H](CO)C(=O)N[C@@H](CCSC)C(=O)N[C@@H](CCC(=O)O)C(=O)N[C@H](C(=O)N[C@@H](CCCNC(=N)N)C(=O)N[C@H](C(=O)N1CCC[C@H]1C(=O)N[C@@H](CC(=O)O)C(=O)N[C@H](C(=O)N[C@@H](CC(N)=O)C(=O)N1CCC[C@H]1C(=O)N[C@@H](C)C(=O)N[C@@H](Cc1c[nH]c2ccccc12)C(=O)N[C@@H](Cc1ccc(O)cc1)C(=O)N[C@@H](C)C(=O)N[C@@H](CO)C(=O)N[C@@H](CCCNC(=N)N)C(=O)NCC(=O)N[C@H](C(=O)N[C@@H](CCCNC(=N)N)C(=O)N1CCC[C@H]1C(=O)N[C@H](C(=O)NCC(=O)N[C@@H](CCCNC(=N)N)C(=O)N[C@@H](Cc1ccccc1)C(=O)NOC)C(C)C)[C@@H](C)CC)[C@@H](C)CC)[C@@H](C)O)[C@@H](C)CC)[C@@H](C)O)", "note": "[analog no. 45]", "values": [{"measurement": "% of PrRP31", "setting": "[2]", "result": 92, "unit": "%"}]}
{"binder": "Myristoyl-SRAHQHSMETRTPDINPAWYTGRGIRPVGRF-NH2 (SMILES CCCCCCCCCCCCCC(=O)N[C@@H](CO)C(=O)N[C@@H](CCCNC(=N)N)C(=O)N[C@@H](C)C(=O)N[C@@H](Cc1c[nH]cn1)C(=O)N[C@@H](CCC(N)=O)C(=O)N[C@@H](Cc1c[nH]cn1)C(=O)N[C@@H](CO)C(=O)N[C@@H](CCSC)C(=O)N[C@@H](CCC(=O)O)C(=O)N[C@H](C(=O)N[C@@H](CCCNC(=N)N)C(=O)N[C@H](C(=O)N1CCC[C@H]1C(=O)N[C@@H](CC(=O)O)C(=O)N[C@H](C(=O)N[C@@H](CC(N)=O)C(=O)N1CCC[C@H]1C(=O)N[C@@H](C)C(=O)N[C@@H](Cc1c[nH]c2ccccc12)C(=O)N[C@@H](Cc1ccc(O)cc1)C(=O)N[C@H](C(=O)NCC(=O)N[C@@H](CCCNC(=N)N)C(=O)NCC(=O)N[C@H](C(=O)N[C@@H](CCCNC(=N)N)C(=O)N1CCC[C@H]1C(=O)N[C@H](C(=O)NCC(=O)N[C@@H](CCCNC(=N)N)C(=O)N[C@@H](Cc1ccccc1)C(N)=O)C(C)C)[C@@H](C)CC)[C@@H](C)O)[C@@H](C)CC)[C@@H](C)O)[C@@H](C)O)", "note": "[analog no. 46]", "values": [{"measurement": "% of PrRP31", "setting": "[1]", "result": 657, "unit": "%"}, {"measurement": "Ki", "setting": "[1]", "result": 0.00075, "unit": "µM"}]}
{"binder": "Palmitoyl-SRAHQHSMETRTPDINPAWYTGRGIRPVGRF-NH2 (SMILES CCCCCCCCCCCCCCCC(=O)N[C@@H](CO)C(=O)N[C@@H](CCCNC(=N)N)C(=O)N[C@@H](C)C(=O)N[C@@H](Cc1c[nH]cn1)C(=O)N[C@@H](CCC(N)=O)C(=O)N[C@@H](Cc1c[nH]cn1)C(=O)N[C@@H](CO)C(=O)N[C@@H](CCSC)C(=O)N[C@@H](CCC(=O)O)C(=O)N[C@H](C(=O)N[C@@H](CCCNC(=N)N)C(=O)N[C@H](C(=O)N1CCC[C@H]1C(=O)N[C@@H](CC(=O)O)C(=O)N[C@H](C(=O)N[C@@H](CC(N)=O)C(=O)N1CCC[C@H]1C(=O)N[C@@H](C)C(=O)N[C@@H](Cc1c[nH]c2ccccc12)C(=O)N[C@@H](Cc1ccc(O)cc1)C(=O)N[C@H](C(=O)NCC(=O)N[C@@H](CCCNC(=N)N)C(=O)NCC(=O)N[C@H](C(=O)N[C@@H](CCCNC(=N)N)C(=O)N1CCC[C@H]1C(=O)N[C@H](C(=O)NCC(=O)N[C@@H](CCCNC(=N)N)C(=O)N[C@@H](Cc1ccccc1)C(N)=O)C(C)C)[C@@H](C)CC)[C@@H](C)O)[C@@H](C)CC)[C@@H](C)O)[C@@H](C)O)", "note": "[analog no. 47]", "values": [{"measurement": "% of PrRP31", "setting": "[1]", "result": 1200, "unit": "%"}, {"measurement": "Ki", "setting": "[1]", "result": 0.00041, "unit": "µM"}]}
{"binder": "SRTHRHSMEIK(Palmitoyl)TPDINPAWYASRGIRPVGRF-NH2", "note": "[analog no. 48]", "values": [{"measurement": "% of PrRP31", "setting": "[2]", "result": 61, "unit": "%"}, {"measurement": "Ki", "setting": "[2]", "result": 0.00637, "unit": "µM"}]}
{"binder": "SHQRPADTHWYPRG[Nle]FPTIGRITARNGEVSR (scrambled peptide; also called 19 scram)", "note": "[analog no. 19]", "values": [{"measurement": "% of PrRP31", "setting": "[1]", "result": "4e-05", "unit": "%"}, {"measurement": "Ki", "setting": "[1]", "result": 1320, "unit": "µM"}]}
